The values that follow come from paper PMC7225057.

The target in experiment [1] is FITC-sCT(22–32) (salmon). Kind of experiment: fluorescence polarisation. On the technique in general: Fluorescence polarisation rises when a labelled molecule tumbles more slowly, as on binding a larger partner.
Experiment [2] addresses biotinylated sCT(1–32) [C1A/C7A] (salmon). Kind of experiment: BLI.
The target is the same in experiment [3]. Kind of experiment: BLI. The source holds these as a separate data set. (Biolayer interferometry detects binding as a change in optical thickness at a sensor tip.)
In experiment [4] the target is FITC-AM(37–52) [S45W/Q50W]. Kind of experiment: fluorescence polarisation.
Experiment [5] has as its target FITC-AM(37–52) [S45W/Q50W]. Kind of experiment: fluorescence polarisation. The source holds these as a separate data set.
For experiment [6], the target named is Glycan-free CTR.38–141 WT (E. coli-produced, MBP-free CTR ECD) (human). Kind of experiment: fluorescence polarisation.
Experiment [7] has as its target Endo H-treated CTR.38–141 N130D (MBP-free CTR ECD) (human). Kind of experiment: fluorescence polarisation.
The target of experiment [8] is Endo H-treated CTR.38–141 WT (MBP-free CTR ECD) (human). Kind of experiment: fluorescence polarisation.

Where two headings read alike, the source gives them in different places.

On to “CTR.34–141 WT (MBP-free CTR ECD, glycosylated, no enzyme treatment) (domain or fragment)”, for which, in experiment [1], the Kd was 380 nM and the pKD is 6.43.

Regarding “Endo H-treated CTR.38–141 N130D (MBP-free CTR ECD) (domain or fragment)”, the figures for the Kd in experiment [2], in experiment [3] and in experiment [1] were 12400 nM, 11900 nM and 2000 nM, respectively. The pKD in experiment [1] stood at 5.7.

“Endo H-treated CTR.38–141 WT (MBP-free CTR ECD) (domain or fragment)”: the kon in experiment [2] was found to be 178000 M⁻¹ s⁻¹. In experiment [1], this substance showed a dissociation constant (Kd) of 500 nM and a pKD of 6.3.

Consider “Glycan-free CTR.38–141 WT (E. coli-produced, MBP-free CTR ECD) (domain or fragment)”, for which the Kd in experiment [2] was 30900 nM; in experiment [3], 10800 nM; in experiment [1], 2700 nM. Also, the pKD in experiment [1] was 5.57.

With “RAMP1-CLR.29–144 N123D (tethered RAMP1-CLR ECD fusion) (from UniProt O60894 24-111; Q16602 29-144) (receptor)”, in experiment [4], the Kd worked out at 740 nM and the pKD was 6.13.

With “RAMP1-CLR.29–144 WT (tethered RAMP1-CLR ECD fusion, CGRP receptor ECD) (from UniProt O60894 24-111; Q16602 29-144)”, the figures for the Kd in experiment [5] and in experiment [4] were 280 nM and 310 nM, respectively. Further, the pKD in experiment [5] came to 6.56; in experiment [4], 6.51.

For “RAMP1-CLR.29–144 WT, PNGase F-treated (deglycosylated) (from UniProt O60894 24-111; Q16602 29-144) (receptor)”, in experiment [4], the dissociation constant (Kd) came out at 1400 nM and the pKD was determined as 5.87.

With “salmon calcitonin sCT(22–32), unlabeled (peptide)”, the values for the Ki in experiment [6], in experiment [7] and in experiment [8] were 11000 nM, 5600 nM and 1600 nM, respectively. Moreover, the values for the pKI in experiment [6], in experiment [7] and in experiment [8] were 4.97, 5.26 and 5.81, respectively.

A word on the Kd: it is the constant that tells how readily two partners part at equilibrium. Read a low Kd as tighter binding. The term pKD denotes the negative decadic logarithm of the KD, by convention in mol/L. One may read the kon as the rate constant with which the complex forms. A low value points to slow association. Usually Ki stands for a dissociation constant, usually derived from enzyme kinetics or from competition with a known ligand. A high value points to lower affinity.
